Measurements reported in patent US20210101937A1 (Bicycle, published 2021).
*1 amine or outer side, *2 acyl side, *3 side chain or, on linkers, in order; H or OH if unused. Bridges are numbered along the chain shown (N, C = ends). Roman numbers before positions name the chains, in order. Where no end group is shown, it is not given here. [ ]: non-standard residue; d: D form. The star is where a group is joined. TATA = O=C(CC[*:1])N1CN(C(=O)CC[*:2])CN(C(=O)CC[*:3])C1; 1Nal = N[C@@H](Cc1cccc2ccccc12)C(=O)O; Hyp = O=C(O)[C@@H]1C[C@@H](O)CN1; hArg = N=C(N)NCCCC[C@H](N)C(=O)O; tBuAla = CC(C)(C)C[C@H](N)C(=O)O; Cysteamide = C(CS[*:3])N[*:1]; Nle = CCCC[C@H](N)C(=O)O; Pent4ynoyl = C#CCCC(=O)*; dNMeA = CN[C@H](C)C(=O)O; βAla = NCCC(=O)O; Mpa = O=C(O)CCS

Legend:
[1] = molecular target: T1, CD137 (UniProt Q07011 24-255, limits assumed); experiment: cell-based or functional assay
T1 sequence (Q07011 24-255 limits assumed): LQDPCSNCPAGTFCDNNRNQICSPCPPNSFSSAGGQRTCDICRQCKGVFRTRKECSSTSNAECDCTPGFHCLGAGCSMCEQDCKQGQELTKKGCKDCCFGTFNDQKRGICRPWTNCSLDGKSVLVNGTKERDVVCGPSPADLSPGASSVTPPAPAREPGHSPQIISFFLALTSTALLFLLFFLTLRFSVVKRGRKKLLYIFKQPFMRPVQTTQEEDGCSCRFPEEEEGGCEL

[2] = molecular target: T1, CD137; experiment: cell-based or functional assay; remark: listed apart in the source

Binder | Fold improvement in EC50 over BCY10000 on same plate [1] [fold] | Fold improvement in Emax over BCY10000 on same plate [1] [fold] | Fold improvement in EC50 over BCY9173 on same plate [2] [fold] | Fold improvement in Emax over BCY9173 on same plate [2] [fold]
BCY12576 (Ac-C[tBuAla]PE[D-Lys(PYA)]PYCFADPY[Nle]CA; Cys residues bonded to TATA scaffold; [3-mercaptopropionic acid]P[1Nal][dK]CM[HArg]DWSTP[HyP]WC; reactive groups bonded to TATA scaffold) peptide 1: XXKCMXDWSTPXWC peptide 2: CXPEXPYCFADPYXCA | 0.23 | 1.45 |  | 
BCY11860 (linker I:2-I:6-I:16, II:1-II:8-II:15 via TATA; linker II:N-II:5 via Peg5; also: two bicycles joined by Peg5 linker, further acylated with a reagent shown only in a drawing) peptide 1: Pent4ynoyl-[βAla]CP[1Nal][dK]CM[hArg]DWSTP[Hyp]WC peptide 2: Ac-C[tBuAla]PE[dK]PYCFADPY[Nle]CA | 0.29 | 1.53 |  | 
BCY11776 (not fully specified; [Ac]C[tBuAla]PE[dK]PYCFADPY[Nle]C[Dap(PYA)]; dK carries palmitic acid (Example 5); Cys residues bonded to TATA scaffold; CP[1Nal][dD]CM[HArg]DWSTP[HyP]WC; Cys residues bonded to TATA scaffold) peptide 1: CPXDCMXDWSTPXWC peptide 2: CXPEKPYCFADPYXCX | 0.05 | 0.07 |  | 
BCY12710 (linker I:1-I:5-I:15, II:1-II:8-II:15 via TATA; not fully specified (bridges); also: chain 1 N-terminus joined to chain 2 dLys(PYA) by Peg5 linker (heterotandem complex)) peptide 1: CP[1Nal][dD]CM[hArg]DWSTP[Hyp]WC peptide 2: Ac-C[tBuAla]PE[dK](Pent4ynoyl)PYCFAD[dNMeA]Y[Nle]C | 0.16 | 1.41 |  | 
BCY12379 ([Ac]C[tBuAla]PE[dK(PYA)]PYCFADPY[Nle]C; Cys residues bonded to TATA scaffold; CP[1Nal][dD]CM[HArg]DWSTP[HyP]WC; Cys residues bonded to TATA scaffold) peptide 1: CPXDCMXDWSTPXWC peptide 2: CXPEKPYCFADPYXC | 0.91 | 1.29 |  | 
BCY12578 (Ac-C[tBuAla]PE[D-Lys(PYA)]PYCFADPY[Nle]CA; Cys residues bonded to TATA scaffold; [3-mercaptopropionic acid]P[1Nal][dK]CM[HArg]DWSTP[HyP]W[Cysteamine]; reactive groups bonded to TATA scaffold) peptide 1: XXKCMXDWSTPXX peptide 2: CXPEXPYCFADPYXCA | 0.05 | 0.93 |  | 
BCY11618 (linker I:2-I:6-I:16, II:1-II:8-II:15 via TATA; linker II:N-II:5 via Peg5; not fully specified (some residues); also: palmitic acid on dK of chain 1) peptide 1: Pent4ynoyl-[βAla]CP[1Nal][dK]CM[hArg]DWSTP[Hyp]WC peptide 2: Ac-C[tBuAla]PE[dK]PYCFADPY[Nle]CA | 0.09 | 2.59 |  | 
BCY12234 (Ac-C[tBuAla]PE[D-Lys]PYCFADPY[Nle]CA; Cys residues bonded to TATA scaffold; [Ac]A[HArg]DC[HyP]LVNPLCLHP[dD]W[HArg]CK(PYA); Cys residues bonded to TATA scaffold) peptide 1: AXDCXLVNPLCLHPDWXCK peptide 2: CXPEKPYCFADPYXCA |  |  | 1 | 0.8
BCY12572 ([Ac]C[tBuAla]PE[dK(PYA)]PYCFADPY[Nle][Cysteamine]; reactive groups bonded to TATA scaffold; CP[1Nal][dD]CM[HArg]DWSTP[HyP]WC; Cys residues bonded to TATA scaffold) peptide 1: CPXDCMXDWSTPXWC peptide 2: CXPEKPYCFADPYX | 0.35 | 1.67 |  | 
BCY12235 (Ac-C[tBuAla]PE[D-Lys]PYCFADPY[Nle]CA; Cys residues bonded to TATA scaffold; [Ac]A[HArg]DC[HyP]LVNPLCLK(PYA)P[dD]W[HArg]C; Cys residues bonded to TATA scaffold) peptide 1: AXDCXLVNPLCLKPDWXC peptide 2: CXPEKPYCFADPYXCA |  |  | 1.1 | 0.8
BCY12579 (Ac-C[tBuAla]PE[D-Lys(PYA)]PYCFADPY[Nle]CA; Cys residues bonded to TATA scaffold; [Ac]CP[1Nal][dK]CM[HArg]HWSTP[HyP]WC; Cys residues bonded to TATA scaffold) peptide 1: CPXKCMXHWSTPXWC peptide 2: CXPEXPYCFADPYXCA | 0.29 | 1.07 |  | 
BCY12574 (linker I:1-I:5-I:15 via TATA; numbers in words are those of the source; also: two bicycles joined by Peg5 linker, linker at chain B 7 to a chain's N/C-terminus via TATA) peptide 1: CP[1Nal][dD]CM[hArg]DWSTP[Hyp]WC peptide 2: [Mpa][tBuAla]PE[dK](Pent4ynoyl)PYCFADPY[Nle]-Cysteamide | 0.22 | 0.77 |  | 
BCY12585 (linker I:1-I:5-I:15, II:1-II:8-II:15 via TATA; not fully specified (bridges); printed as CP[1Nal][dE]CM[HArg]EWSTP[HyP]WC / Ac-C[tBuAla]PE[D-Lys(PYA)]PYCFADPY[Nle]CA; also: chain 1 N-terminus joined to chain 2 dLys(PYA) by Peg5 linker (heterotandem complex)) peptide 1: CP[1Nal][dE]CM[hArg]EWSTP[Hyp]WC peptide 2: Ac-C[tBuAla]PE[dK](Pent4ynoyl)PYCFADPY[Nle]CA | 1.31 | 1.5 |  | 
